Data: patent US7723111

Target: folate binding protein (FBP) (UniProt P15328)
Experiment: cell-based or functional assay

Chain of UniProt P15328 (P15328 25-234 limits assumed): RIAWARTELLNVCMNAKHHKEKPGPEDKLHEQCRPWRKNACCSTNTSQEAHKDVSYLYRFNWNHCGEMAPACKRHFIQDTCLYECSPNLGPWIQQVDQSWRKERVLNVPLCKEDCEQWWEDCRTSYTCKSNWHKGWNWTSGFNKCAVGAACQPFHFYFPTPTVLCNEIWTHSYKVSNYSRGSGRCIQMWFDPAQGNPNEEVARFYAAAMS

How did the IFN-γ secretion (pg/ml) of MOv-γ transduced mouse T cells in response to 24JK-FBP cells (parental 24JK: 0; non-transduced T cells: 0) turn out when MOv-γ chimeric receptor was run?
The IFN-γ secretion (pg/ml) of MOv-γ transduced mouse T cells in response to 24JK-FBP cells (parental 24JK: 0; non-transduced T cells: 0) was 5200 pg/mL.

And the IFN-γ secretion (pg/ml) of MOv-γ transduced mouse T cells in response to IGROV (ovarian FBP +) cells (non-transduced T cells: 0)?
The IFN-γ secretion (pg/ml) of MOv-γ transduced mouse T cells in response to IGROV (ovarian FBP +) cells (non-transduced T cells: 0) was 37500 pg/mL.

What about the share of MOv-γ transduced human T cell clones (patient 410) reactive against the ovarian cancer target of the same substance?
Its share of MOv-γ transduced human T cell clones (patient 410) reactive against the ovarian cancer target is 67 % of clones.
